Results taken from PMC11075285 (2024).

Kd (NEF172): 10.9 nM | Kd (NEF163): 3.5 nM | Kd (NEF108): 5.3 nM
B1: hIL-6Rα on hIL-6Rα-transfected HEK293T cells (receptor)
chain: LAPRRCPAQEVARGVLTSLPGDSVTLTCPGVEPEDNATVHWVLRKPAAGSHPSRWAGMGRRLLLRSVQLHDSGNYSCYRAGRPAGTVHLLVDVPPEEPQLSCFRKSPLSNVVCEWGPRSTPSLTTKAVLLVRKFQNSPAEDFQEPCQYSQESQKFSCQLAVPEGDSSFYIVSMCVASSVGSKFSKTQTFQGCGILQPDPPANITVTAVARNPRWLSVTWQDPHSWNSSFYRLRFELRYRAERSKTFTTWMVKDLQHHCVIHDAWSGLRHVVQLRAQEEFGQGEWSEWSPEAMGTPWTESRSPPAENEVSTPMQALTTNKDDDNILFRDSANATSLPVQDSSSVPLPTFLVAGGSLAFGTLLCIAIVLRFKKTWKLRALKEGKTSMHPPYSLGQLVPERPRPTPVLVPLISPPVSPSSLGSDNTSSHNRPDARDPRSPYDISNTDYFFPR
